Here are results for eight molecules from PMC11672753 (Plant Biotechnology Journal, 2024).

The labels stand for the following.
B1: M15-YTE (antibody, V domains shown)
VH: QVQLLESGGGLVQPGGSLRLSCAASGFTFSSYAMSWVRQAPGKGLEWASAISGSGGSTYYADSVEGRFTISRDNSKNTLYLQMNSLRAEDTAVYYCAKDTGYCGDDCYIKLIRGGPDYWGQGTLVTVSS
VL: DIVMTQSPLSLPVTLGQPASISCRSSQSLVYSDGNTFLNWFQQRPGQSPRRLIYQVSNRDSGVPDRFSGSGSGTDFTLKISRVEAEDVGVYYCMQGTHWPRTFGQGTKLEIK
B2: S15-YTE (Fc fusion)
VH: B1 VH
VL: B1 VL
B3: M15-HDEL (antibody, V domains shown)
VH: B1 VH
VL: B1 VL
B4: M15-FX (antibody, V domains shown)
VH: B1 VH
VL: B1 VL
B5: S15-HDEL (Fc fusion)
VH: B1 VH
VL: B1 VL
B6: M15 (plant-produced COVA2-15, conventional IgG1) (antibody, V domains shown)
VH: B1 VH
VL: B1 VL
B7: S15 (plant-produced COVA2-15, single-chain (sc)Fv-Fc format) (Fc fusion, human)
VH: B1 VH
VL: B1 VL
B8: S15-FX (Fc fusion)
VH: B1 VH
VL: B1 VL

The assay has as its target T1, SARS-CoV-2 Spike Wuhan (recombinant) (SARS-CoV-2, Wuhan-Hu-1, UniProt P0DTC2).
T1 construct: also called recombinant SARS-CoV-2 Spike
The experiment in a line: ELISA; plates coated with 2 μg/mL SARS-CoV-2 Spike Wuhan in PBS; antibodies from 5 nM, 10-fold serial dilutions in PBS/0.5% BSA, 1 h RT; detected with goat anti-human IgG (H + L) peroxidase. The note with it: both partners purified. For orientation: In an ELISA, binding on a coated surface is turned into a signal by an enzyme label.
Turning to B1, the binding result is given as “binds”.

For the molecule B2, the binding result is “binds”.

For the molecule B3, the binding result is recorded as “binds”.

With B4, the binding result is on record as “binds”.

Regarding B5, the binding result was “binds”.

With B6, the binding result is recorded as “binds”.

Turning to B7, the binding result is “binds”.

On to B8, for which the binding result is “binds”.
